System: T1, fluorescence labeled peptide of the protease-sensitive hinge region of LTBP1, REHGARS
T1 sequence: REHGARS

MMP13 catalytic domain (Enzo, Inc)
Km (Michaelis-Menten non-linear fit, digest of fluorescence labeled hinge substrate): Km=1.628e-016
